Laboratory results reported in publication doi:10.1101/2022.07.08.499339 (bioRxiv, 2022).

B1: CeMIGA2_(long), C. elegans MIGA (106-496) (domain or fragment, UniProt Q21096 106-496, looked up)
chain: SMNPIEADITSGQELCTELRKTIEKVHHNLEMVKNRSSKDMERSIKIEGILKGLKQVEDEIVLLVPQMEDFRDDNMEFYSVSGGSGYAGSVRTGRSRTLSVLSDDSFRSAVEEFACDIDDIDFVSDAANLDKNELRFLDEGMQAALNGEVKYRKSRMEFCKCDSETDFAAKLYCVRQALTNALKDEHKRVWLAKCGRTLLADFIRHTKQDPVKFFNAYDEMLEYVSNDRNEEQLRQDVEGRGVCETGFYDVAIDFIILDAFEDLKSPPSAVYSVTKNYFMSMSMKYSTLNTIIWSIIKSKRQRLKNPDGFIAKFYNISETVMPAITLGFLGTDERLGELCQYFKEQVVQFVLDVFNTQKVCYRSLEEMSEDVWIVMRNRLEAVQTRMSNEL

What was measured:
[1] = molecular target: hMIGA2_(long)-6xhis (human) (UniProt Q7L4E1); assay: native MS
SEC = molecular target: the molecule itself; assay: SEC

| Molecule | stoichiometry N [1] | stoichiometry N (SEC) |
| --- | --- | --- |
| hMIGA2_(long)-6xhis (from UniProt Q7L4E1 170-593) (domain or fragment) | 2 | – |
| B1 | – | 2 |
